Patent US20020110853A1

Target: FLAG-TWEAKR, expressed on transfected HUVEC (human) (UniProt Q9NP84)
Assay: cell-based or functional assay

Sequence of FLAG-TWEAKR, expressed on transfected HUVEC (human) (Q9NP84 28-129): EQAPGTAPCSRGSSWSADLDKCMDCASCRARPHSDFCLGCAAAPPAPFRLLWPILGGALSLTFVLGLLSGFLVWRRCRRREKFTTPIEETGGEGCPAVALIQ

- BrdU incorporation of FLAG-TWEAKR expressing HUVEC, against goat anti-mouse IgG alone: 3 fold
- BrdU incorporation of FLAG-TWEAKR expressing HUVEC, against vector-only transfected HUVEC with the cross-linking complex: 6 fold
Substance: M2 anti-FLAG monoclonal antibody
